Experimental data taken from the supplement of paper PMC10065799, “High-throughput profiling of sequence recognition by tyrosine kinases and SH2 domains using bacterial peptide display” (eLife, 2023).

Molecular target: Fes (UniProt P07332)
Assay: phosphorylation enrichment, bacterial display (enrichment ratio); higher = better substrate or ligand; peptides without Tyr show the background
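Further: 11-residue human phosphosite peptides and single-mutation variants displayed on the E. coli surface, counted by deep sequencing, each peptide's frequency after selection divided by its frequency in the unselected input library; frequency after pTyr selection over input frequency; kinase dosed for 20-30% of maximal phosphorylation in three min.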

Chain of Fes (P07332 whole entry, looked up): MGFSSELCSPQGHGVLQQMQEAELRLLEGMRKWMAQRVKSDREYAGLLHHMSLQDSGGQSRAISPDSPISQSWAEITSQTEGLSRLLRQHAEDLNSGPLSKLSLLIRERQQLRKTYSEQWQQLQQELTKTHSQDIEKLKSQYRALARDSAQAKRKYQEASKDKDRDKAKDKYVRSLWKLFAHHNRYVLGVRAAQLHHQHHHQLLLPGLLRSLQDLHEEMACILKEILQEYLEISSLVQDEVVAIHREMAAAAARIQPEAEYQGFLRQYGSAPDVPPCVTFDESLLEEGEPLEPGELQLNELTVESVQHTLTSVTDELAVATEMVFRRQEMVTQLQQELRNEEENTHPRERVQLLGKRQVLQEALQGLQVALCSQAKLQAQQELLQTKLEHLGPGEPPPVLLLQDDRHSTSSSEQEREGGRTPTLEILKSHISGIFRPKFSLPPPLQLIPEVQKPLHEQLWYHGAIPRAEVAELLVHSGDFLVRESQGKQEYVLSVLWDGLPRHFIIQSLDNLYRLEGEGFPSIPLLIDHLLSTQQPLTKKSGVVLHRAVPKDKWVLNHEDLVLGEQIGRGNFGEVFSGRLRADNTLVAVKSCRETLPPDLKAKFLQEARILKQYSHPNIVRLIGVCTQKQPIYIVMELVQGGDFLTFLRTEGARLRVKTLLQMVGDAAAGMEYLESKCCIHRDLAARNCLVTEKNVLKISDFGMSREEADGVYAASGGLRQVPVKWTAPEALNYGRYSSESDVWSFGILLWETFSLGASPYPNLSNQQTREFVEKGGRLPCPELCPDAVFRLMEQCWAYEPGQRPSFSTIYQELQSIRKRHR

Q: Which phosphorylation enrichment does the source give for LPPGTYPSDFA [UNC5B_Y511] here?
A: Its phosphorylation enrichment is 0.96.

Q: YCGYSYDDIPD [TMEM230_Y112_R108C] was tested. Which phosphorylation enrichment did it give?
A: The phosphorylation enrichment was 1.34.

Q: EAMSDYKKQLR [SPATA18_Y229] was tested. Which phosphorylation enrichment did it give?
A: Its phosphorylation enrichment is 0.651.

Q: How did the phosphorylation enrichment turn out when TVEDHYYEGGI [TKT_Y563] was run?
A: The phosphorylation enrichment was 1.23.

Q: Which phosphorylation enrichment does the source give for TQRPHYKGGGG [TYROBP_Y112_Y111H] here?
A: The phosphorylation enrichment was 0.686.

Q: How did the phosphorylation enrichment turn out when TNFRFYLRSLE [MTM1_Y71_L70F_YF] was run?
A: The phosphorylation enrichment was 1.64.

Q: How did the phosphorylation enrichment turn out when RSIGEYDVLRA [PRKDC_Y2936_G2941A] was run?
A: The phosphorylation enrichment was 1.31.

Q: For YEEDPYLVVNP [MCM6_Y810], which phosphorylation enrichment is on record?
A: Its phosphorylation enrichment is 1.37.

Q: Which phosphorylation enrichment does the source give for KLFYIYTPGTT [SLC27A4_Y245_S247P] here?
A: The phosphorylation enrichment was 1.17.

Q: How did the phosphorylation enrichment turn out when AHAGEYGADAL [HBA1_Y25_E28D] was run?
A: Its phosphorylation enrichment is 0.653.

Q: With SVVEPYEPPEV [TP53_Y220_V218E] as the sequence, how does the phosphorylation enrichment read?
A: Its phosphorylation enrichment is 1.1.

Q: With SFCFRYRCAAW [SUMF1_Y344_R349W_YF] as the sequence, how does the phosphorylation enrichment read?
A: Its phosphorylation enrichment is 0.829.

Q: How did the phosphorylation enrichment turn out when AVEDQYFRVDC [FHL1_Y207_C209R_YF] was run?
A: The phosphorylation enrichment was 1.38.

Q: How did the phosphorylation enrichment turn out when TEQDPYNNIVC [MMUT_Y364_R369C] was run?
A: The phosphorylation enrichment was 1.22.

Q: For SPLEVYVDKSQ [FLNA_Y373_F370L], which phosphorylation enrichment is on record?
A: The phosphorylation enrichment was 1.25.

Q: For FGDTSYIPFRD [CDC14C_Y132_P131S], which phosphorylation enrichment is on record?
A: Its phosphorylation enrichment is 0.672.

Molecular target: EPHB2 (UniProt P29323)
Assay: as above

Chain of EPHB2 (P29323 whole entry, looked up): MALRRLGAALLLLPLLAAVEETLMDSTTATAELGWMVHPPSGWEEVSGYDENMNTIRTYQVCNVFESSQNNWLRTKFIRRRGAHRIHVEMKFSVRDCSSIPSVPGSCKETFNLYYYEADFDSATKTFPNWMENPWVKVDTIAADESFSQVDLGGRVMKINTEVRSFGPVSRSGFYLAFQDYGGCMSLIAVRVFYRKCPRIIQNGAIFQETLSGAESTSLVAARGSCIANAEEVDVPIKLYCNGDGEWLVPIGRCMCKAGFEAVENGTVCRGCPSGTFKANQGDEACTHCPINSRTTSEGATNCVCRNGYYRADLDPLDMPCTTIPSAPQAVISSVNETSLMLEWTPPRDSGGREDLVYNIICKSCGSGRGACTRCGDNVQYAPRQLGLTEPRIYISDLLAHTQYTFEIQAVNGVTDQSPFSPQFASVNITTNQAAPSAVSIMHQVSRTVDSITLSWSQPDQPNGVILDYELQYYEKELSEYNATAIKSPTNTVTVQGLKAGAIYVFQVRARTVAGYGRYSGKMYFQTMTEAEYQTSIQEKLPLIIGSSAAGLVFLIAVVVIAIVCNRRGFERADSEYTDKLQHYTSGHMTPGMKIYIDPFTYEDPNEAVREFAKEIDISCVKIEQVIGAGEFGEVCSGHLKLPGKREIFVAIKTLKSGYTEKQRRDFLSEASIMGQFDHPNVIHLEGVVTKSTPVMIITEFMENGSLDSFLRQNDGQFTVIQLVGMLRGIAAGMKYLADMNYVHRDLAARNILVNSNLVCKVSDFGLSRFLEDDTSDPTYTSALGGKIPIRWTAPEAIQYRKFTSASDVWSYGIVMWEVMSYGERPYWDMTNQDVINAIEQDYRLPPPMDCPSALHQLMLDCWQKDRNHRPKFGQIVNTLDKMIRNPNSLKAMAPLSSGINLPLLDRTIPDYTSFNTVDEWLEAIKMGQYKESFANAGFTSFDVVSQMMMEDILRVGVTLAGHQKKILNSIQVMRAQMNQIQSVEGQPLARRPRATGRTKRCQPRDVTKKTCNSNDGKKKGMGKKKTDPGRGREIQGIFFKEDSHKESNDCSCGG

Q: For LPPGTYPSDFA [UNC5B_Y511], which phosphorylation enrichment is on record?
A: Its phosphorylation enrichment is 0.412.

Q: How did the phosphorylation enrichment turn out when YCGYSYDDIPD [TMEM230_Y112_R108C] was run?
A: The phosphorylation enrichment was 0.954.

Q: EAMSDYKKQLR [SPATA18_Y229] was tested. Which phosphorylation enrichment did it give?
A: The phosphorylation enrichment was 0.413.

Q: For TVEDHYYEGGI [TKT_Y563], which phosphorylation enrichment is on record?
A: The phosphorylation enrichment was 0.583.

Q: TQRPHYKGGGG [TYROBP_Y112_Y111H] was tested. Which phosphorylation enrichment did it give?
A: Its phosphorylation enrichment is 0.587.

Q: Which phosphorylation enrichment does the source give for TNFRFYLRSLE [MTM1_Y71_L70F_YF] here?
A: Its phosphorylation enrichment is 0.611.

Q: For RSIGEYDVLRA [PRKDC_Y2936_G2941A], which phosphorylation enrichment is on record?
A: The phosphorylation enrichment was 1.13.

Q: How did the phosphorylation enrichment turn out when YEEDPYLVVNP [MCM6_Y810] was run?
A: The phosphorylation enrichment was 0.56.

Q: KLFYIYTPGTT [SLC27A4_Y245_S247P] was tested. Which phosphorylation enrichment did it give?
A: The phosphorylation enrichment was 0.584.

Q: For AHAGEYGADAL [HBA1_Y25_E28D], which phosphorylation enrichment is on record?
A: Its phosphorylation enrichment is 0.416.

Q: SVVEPYEPPEV [TP53_Y220_V218E] was tested. Which phosphorylation enrichment did it give?
A: Its phosphorylation enrichment is 0.533.

Q: How did the phosphorylation enrichment turn out when SFCFRYRCAAW [SUMF1_Y344_R349W_YF] was run?
A: Its phosphorylation enrichment is 0.465.

Q: AVEDQYFRVDC [FHL1_Y207_C209R_YF] was tested. Which phosphorylation enrichment did it give?
A: The phosphorylation enrichment was 0.568.

Q: Which phosphorylation enrichment does the source give for TEQDPYNNIVC [MMUT_Y364_R369C] here?
A: The phosphorylation enrichment was 0.572.

Q: With SPLEVYVDKSQ [FLNA_Y373_F370L] as the sequence, how does the phosphorylation enrichment read?
A: Its phosphorylation enrichment is 0.716.

Q: FGDTSYIPFRD [CDC14C_Y132_P131S] was tested. Which phosphorylation enrichment did it give?
A: The phosphorylation enrichment was 0.533.

Tested on: AncSZ
Assay: as above

Q: Which phosphorylation enrichment does the source give for LPPGTYPSDFA [UNC5B_Y511] here?
A: Its phosphorylation enrichment is 0.744.

Q: Which phosphorylation enrichment does the source give for YCGYSYDDIPD [TMEM230_Y112_R108C] here?
A: Its phosphorylation enrichment is 2.47.

Q: For EAMSDYKKQLR [SPATA18_Y229], which phosphorylation enrichment is on record?
A: The phosphorylation enrichment was 0.594.

Q: TVEDHYYEGGI [TKT_Y563] was tested. Which phosphorylation enrichment did it give?
A: The phosphorylation enrichment was 1.27.

Q: Which phosphorylation enrichment does the source give for TQRPHYKGGGG [TYROBP_Y112_Y111H] here?
A: Its phosphorylation enrichment is 0.558.

Q: For TNFRFYLRSLE [MTM1_Y71_L70F_YF], which phosphorylation enrichment is on record?
A: The phosphorylation enrichment was 1.3.

Q: Which phosphorylation enrichment does the source give for RSIGEYDVLRA [PRKDC_Y2936_G2941A] here?
A: The phosphorylation enrichment was 0.887.

Q: For YEEDPYLVVNP [MCM6_Y810], which phosphorylation enrichment is on record?
A: Its phosphorylation enrichment is 1.79.

Q: For KLFYIYTPGTT [SLC27A4_Y245_S247P], which phosphorylation enrichment is on record?
A: Its phosphorylation enrichment is 1.25.

Q: Which phosphorylation enrichment does the source give for AHAGEYGADAL [HBA1_Y25_E28D] here?
A: The phosphorylation enrichment was 0.606.

Q: How did the phosphorylation enrichment turn out when SVVEPYEPPEV [TP53_Y220_V218E] was run?
A: The phosphorylation enrichment was 1.29.

Q: How did the phosphorylation enrichment turn out when SFCFRYRCAAW [SUMF1_Y344_R349W_YF] was run?
A: Its phosphorylation enrichment is 0.933.

Q: AVEDQYFRVDC [FHL1_Y207_C209R_YF] was tested. Which phosphorylation enrichment did it give?
A: Its phosphorylation enrichment is 2.04.

Q: Which phosphorylation enrichment does the source give for TEQDPYNNIVC [MMUT_Y364_R369C] here?
A: Its phosphorylation enrichment is 1.14.

Q: With SPLEVYVDKSQ [FLNA_Y373_F370L] as the sequence, how does the phosphorylation enrichment read?
A: The phosphorylation enrichment was 1.2.

Q: With FGDTSYIPFRD [CDC14C_Y132_P131S] as the sequence, how does the phosphorylation enrichment read?
A: Its phosphorylation enrichment is 0.659.

Molecular target: FGFR3 (UniProt P22607)
Assay: as above

Chain of FGFR3 (P22607 whole entry, looked up): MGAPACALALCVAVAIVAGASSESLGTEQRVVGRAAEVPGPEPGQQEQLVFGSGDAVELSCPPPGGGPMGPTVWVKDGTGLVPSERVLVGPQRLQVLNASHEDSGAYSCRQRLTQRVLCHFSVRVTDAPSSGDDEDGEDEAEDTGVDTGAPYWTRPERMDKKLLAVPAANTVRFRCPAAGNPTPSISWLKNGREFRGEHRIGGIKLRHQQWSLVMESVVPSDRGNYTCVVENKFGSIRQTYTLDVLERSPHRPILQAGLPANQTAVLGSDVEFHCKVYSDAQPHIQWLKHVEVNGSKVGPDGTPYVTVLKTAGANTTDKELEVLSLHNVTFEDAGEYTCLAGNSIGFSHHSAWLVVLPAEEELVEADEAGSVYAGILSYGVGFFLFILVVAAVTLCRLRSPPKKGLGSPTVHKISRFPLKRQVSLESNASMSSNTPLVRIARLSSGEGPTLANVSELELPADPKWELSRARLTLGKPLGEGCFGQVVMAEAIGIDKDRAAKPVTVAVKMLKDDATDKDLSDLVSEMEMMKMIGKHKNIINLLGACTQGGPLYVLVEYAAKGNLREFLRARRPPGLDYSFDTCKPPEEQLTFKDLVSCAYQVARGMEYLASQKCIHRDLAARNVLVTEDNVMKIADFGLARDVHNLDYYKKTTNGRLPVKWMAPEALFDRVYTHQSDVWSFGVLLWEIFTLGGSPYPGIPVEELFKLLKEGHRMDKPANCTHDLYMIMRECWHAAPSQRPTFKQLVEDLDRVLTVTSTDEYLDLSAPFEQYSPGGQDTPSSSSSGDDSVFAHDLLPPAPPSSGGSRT

Q: How did the phosphorylation enrichment turn out when LPPGTYPSDFA [UNC5B_Y511] was run?
A: Its phosphorylation enrichment is 0.595.

Q: Which phosphorylation enrichment does the source give for YCGYSYDDIPD [TMEM230_Y112_R108C] here?
A: Its phosphorylation enrichment is 1.57.

Q: EAMSDYKKQLR [SPATA18_Y229] was tested. Which phosphorylation enrichment did it give?
A: The phosphorylation enrichment was 0.605.

Q: TVEDHYYEGGI [TKT_Y563] was tested. Which phosphorylation enrichment did it give?
A: Its phosphorylation enrichment is 1.9.

Q: How did the phosphorylation enrichment turn out when TQRPHYKGGGG [TYROBP_Y112_Y111H] was run?
A: The phosphorylation enrichment was 0.76.

Q: How did the phosphorylation enrichment turn out when TNFRFYLRSLE [MTM1_Y71_L70F_YF] was run?
A: The phosphorylation enrichment was 0.964.

Q: RSIGEYDVLRA [PRKDC_Y2936_G2941A] was tested. Which phosphorylation enrichment did it give?
A: The phosphorylation enrichment was 0.818.

Q: YEEDPYLVVNP [MCM6_Y810] was tested. Which phosphorylation enrichment did it give?
A: Its phosphorylation enrichment is 1.52.

Q: With KLFYIYTPGTT [SLC27A4_Y245_S247P] as the sequence, how does the phosphorylation enrichment read?
A: The phosphorylation enrichment was 0.899.

Q: How did the phosphorylation enrichment turn out when AHAGEYGADAL [HBA1_Y25_E28D] was run?
A: The phosphorylation enrichment was 0.41.

Q: How did the phosphorylation enrichment turn out when SVVEPYEPPEV [TP53_Y220_V218E] was run?
A: Its phosphorylation enrichment is 0.654.

Q: For SFCFRYRCAAW [SUMF1_Y344_R349W_YF], which phosphorylation enrichment is on record?
A: Its phosphorylation enrichment is 0.613.

Q: For AVEDQYFRVDC [FHL1_Y207_C209R_YF], which phosphorylation enrichment is on record?
A: Its phosphorylation enrichment is 3.33.

Q: With TEQDPYNNIVC [MMUT_Y364_R369C] as the sequence, how does the phosphorylation enrichment read?
A: Its phosphorylation enrichment is 0.666.

Q: With SPLEVYVDKSQ [FLNA_Y373_F370L] as the sequence, how does the phosphorylation enrichment read?
A: The phosphorylation enrichment was 0.74.

Q: For FGDTSYIPFRD [CDC14C_Y132_P131S], which phosphorylation enrichment is on record?
A: The phosphorylation enrichment was 0.496.
